This is an account of results in patent US20230025129A1 (KYMAB, published 2023).

The term Kd denotes a measure of binding affinity in units of concentration. High values mean lower affinity, low ones higher affinity.

Changes are numbered by the printed parent chain. Names and notes keep the numbering of the source.

The labels stand for the following.
B1: NORI-006 (antibody, human IgG4 S228P, kappa, V domains shown)
VH: EVQLVESGGGLIKPGRSLRLSCTGSGFTFGDFGLSWFRQAPGKGLEWISFIRSKPYGGTTDYAASVKGRFTISRDDSKNVAYLQMNSLKTEDTAVYYCARNEILTGYYIFDYWGQGTLVTVSS
VL: DIQMTQSPSSLSASLGDRVTITCQASQDINNYLNWYQVQPGKAPKLLIFDASILETGVPSRFSGSGSGTDFSFTISSLQPEDIATYYCQQYDNLPLTFGGGTKVDFKR
notes: human IgG4PE, kappa
B2: NORI-008 (antibody, human IgG4 S228P, kappa, V domains shown)
VH: QVQLQESGPGLVKPSETLSLTCSVSGGSVSSGRYYWTWIRQPPGKGLEWIGYISNSGNTNYNPSLKSRVTISLDTSKKQFSLSLSAVTAADTAVYYCARGFIYDYWFDPWGQGSLVTVSS
VL: DSQMTQSPSSLSASVGDRVTITCQASQDIDNYLNWYQQRPGKAPKLLIYDASKLETGVPSRFSGSGSGTDFTFTISSLQPEDFATYYCQQYGNLPITFGQGTRLDIKR
notes: human IgG4PE, kappa, in the in vitro assays; a mouse IgG1 format was used in one in vivo study only; also called NORI-008 hulgG4PE; NORI-008 IgG
B3: NORI-013 (antibody, human IgG4 S228P, lambda, V domains shown)
VH: EVQLVESGGGLIQAGRSLRLSCAASGFTFDEHVIYWVRQIPGKGLEWISSISWKSDIIAYADSVKGRFTISRDNAKNALYLQMNSLRAEDTALYYCAREKDGDFYYYYFAMDVWGQGTTVTVSS
VL: QSALTQPPSASGSPGQSVTLSCTGTSSDVGYYNYVSWYLQHPGKAPKLMIYEVSKRPSGVPDRFSGSKSANTASLTVSGLQAEDEADYYCSSYAGSNKVVFGGGTKVTVLG
notes: human IgG4PE, lambda
B4: NORI-014 (antibody, human IgG4 S228P, lambda, V domains shown)
VH: B3 VH with I34M, S52T
VL: B3 VL
notes: human IgG4PE, lambda
B5: NORI-003 (antibody, human IgG4 S228P, kappa, V domains shown)
VH: EVQLVESGGGLVKPGRSLRLSCTGSGFTFGDFGMSWFRQAPGKGLEWVGFIRSKPYGGTTDYAPSVRGRFSISRDDSKGIVYLQMNSLRTEDTAVYYCSRNEILTGYYIFDYWGQGTLVTVSS
VL: B1 VL with Q27H, N30T, N34I, V38Q, Q39K, K45R, S72T, I83F, D92Y, F106I
notes: human IgG4PE, kappa; NORI-002 with the free cysteine of the VH domain mutated (printed as 'C49C')
B6: NORI-011 (antibody, human IgG4 S228P, lambda)
heavy: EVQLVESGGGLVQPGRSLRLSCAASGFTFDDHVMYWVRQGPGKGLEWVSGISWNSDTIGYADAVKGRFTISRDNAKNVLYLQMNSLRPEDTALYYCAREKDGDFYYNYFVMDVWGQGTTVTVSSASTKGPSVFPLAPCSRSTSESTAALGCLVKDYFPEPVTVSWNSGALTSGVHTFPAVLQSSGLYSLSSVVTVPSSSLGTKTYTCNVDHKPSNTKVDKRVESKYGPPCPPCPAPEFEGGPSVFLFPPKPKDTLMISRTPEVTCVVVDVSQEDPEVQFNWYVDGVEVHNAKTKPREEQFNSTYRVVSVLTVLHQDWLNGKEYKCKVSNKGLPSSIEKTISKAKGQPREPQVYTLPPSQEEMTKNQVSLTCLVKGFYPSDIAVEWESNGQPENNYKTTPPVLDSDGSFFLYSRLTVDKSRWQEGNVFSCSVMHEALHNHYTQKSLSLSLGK
light: QSALTQPPSASGSPGQSVTISCTGTSSDVGFYNFVSWYQQHPDKAPKVMIYEVSKRPSGVPDRFSGSKSGNTASLTVSGLQAEDEADYYCSSYAGSNKVVFGGGTKLTVLGQPKAAPSVTLFPPSSEELQANKATLVCLISDFYPGAVTVAWKADSSPVKAGVETTTPSKQSNNKYAASSYLSLTPEQWKSHRSYSCQVTHEGSTVEKTVAPTECS
notes: human IgG4PE, lambda; NORI-010 with a P124S mutation in the VH domain

One test addresses T1, human matriptase-2 ECD protein his tag (human, UniProt Q8IU80 78-811).
T1 sequence: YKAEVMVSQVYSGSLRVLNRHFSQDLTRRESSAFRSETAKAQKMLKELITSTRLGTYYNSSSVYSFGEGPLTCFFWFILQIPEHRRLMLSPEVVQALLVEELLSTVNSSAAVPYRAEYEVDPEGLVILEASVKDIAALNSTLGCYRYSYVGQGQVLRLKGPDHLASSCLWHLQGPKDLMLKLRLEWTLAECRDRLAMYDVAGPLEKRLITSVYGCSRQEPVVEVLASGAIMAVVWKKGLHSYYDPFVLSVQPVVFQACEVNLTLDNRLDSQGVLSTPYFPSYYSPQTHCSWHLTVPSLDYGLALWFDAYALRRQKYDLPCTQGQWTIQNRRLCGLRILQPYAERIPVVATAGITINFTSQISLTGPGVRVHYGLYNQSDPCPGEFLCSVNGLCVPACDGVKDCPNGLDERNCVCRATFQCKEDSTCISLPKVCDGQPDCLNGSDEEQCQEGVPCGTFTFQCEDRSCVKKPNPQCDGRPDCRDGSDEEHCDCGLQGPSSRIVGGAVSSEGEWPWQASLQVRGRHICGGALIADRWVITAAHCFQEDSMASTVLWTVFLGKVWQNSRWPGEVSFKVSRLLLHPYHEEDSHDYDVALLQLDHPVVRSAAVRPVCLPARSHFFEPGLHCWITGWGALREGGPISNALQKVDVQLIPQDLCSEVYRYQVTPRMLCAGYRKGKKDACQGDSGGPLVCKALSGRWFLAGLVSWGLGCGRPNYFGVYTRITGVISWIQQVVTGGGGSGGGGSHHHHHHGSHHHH
Nature of the test: cell-based or functional assay.
In the case of B1, the “Inhibition enzymatic activity human MTP2 protein (IC50)” value worked out at 8.8 nM.

As for B2, the “Inhibition enzymatic activity human MTP2 protein (IC50)” value stood at 8.28 nM.

B3: the “Inhibition enzymatic activity human MTP2 protein (IC50)” value was 5.63 nM.

For the molecule B4, the “Inhibition enzymatic activity human MTP2 protein (IC50)” value was 11.8 nM.

The target in the next test is T2, mouse matriptase-2 ECD protein his tag (mouse, UniProt Q9DBI0 80-811).
T2 sequence: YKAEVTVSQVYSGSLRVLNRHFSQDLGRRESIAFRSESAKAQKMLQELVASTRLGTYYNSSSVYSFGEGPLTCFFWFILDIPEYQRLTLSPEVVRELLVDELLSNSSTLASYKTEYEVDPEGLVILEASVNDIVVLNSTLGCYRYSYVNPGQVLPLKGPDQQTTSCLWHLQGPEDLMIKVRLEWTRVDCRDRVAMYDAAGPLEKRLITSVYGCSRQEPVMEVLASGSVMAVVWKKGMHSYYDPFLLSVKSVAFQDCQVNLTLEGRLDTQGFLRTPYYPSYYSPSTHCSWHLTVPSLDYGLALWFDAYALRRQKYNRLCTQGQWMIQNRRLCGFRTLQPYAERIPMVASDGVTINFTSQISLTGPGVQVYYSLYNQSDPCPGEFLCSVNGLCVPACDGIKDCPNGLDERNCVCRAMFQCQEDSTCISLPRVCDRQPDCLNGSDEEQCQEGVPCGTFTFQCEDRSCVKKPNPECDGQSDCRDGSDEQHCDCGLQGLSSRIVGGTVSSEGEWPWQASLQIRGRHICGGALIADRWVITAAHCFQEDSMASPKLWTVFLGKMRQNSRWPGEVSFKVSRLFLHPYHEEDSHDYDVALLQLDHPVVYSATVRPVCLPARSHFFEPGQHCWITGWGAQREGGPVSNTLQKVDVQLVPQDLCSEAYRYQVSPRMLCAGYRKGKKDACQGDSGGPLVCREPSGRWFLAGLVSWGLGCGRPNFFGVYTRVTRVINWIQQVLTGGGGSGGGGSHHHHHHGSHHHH
Nature of the test: cell-based or functional assay.
On to B1, for which the “Inhibition enzymatic activity mouse MTP2 protein (IC50)” value is 22.9 nM.

Consider B2, for which the “Inhibition enzymatic activity mouse MTP2 protein (IC50)” value came to 1.5 nM.

As to B3, the “Inhibition enzymatic activity mouse MTP2 protein (IC50)” value amounted to 3.59 nM.

As to B4, the “Inhibition enzymatic activity mouse MTP2 protein (IC50)” value turned out to be 8.5 nM.

In the next test the target is T3, rat matriptase-2 ECD protein his tag (rat, UniProt Q9DBI0 80-811 (mouse entry)).
T3 construct: aa 80-811 of NCBI XP_006242057.1 with C-terminal linker and His tag; also called rat MTP-2 ECD
T3 chain: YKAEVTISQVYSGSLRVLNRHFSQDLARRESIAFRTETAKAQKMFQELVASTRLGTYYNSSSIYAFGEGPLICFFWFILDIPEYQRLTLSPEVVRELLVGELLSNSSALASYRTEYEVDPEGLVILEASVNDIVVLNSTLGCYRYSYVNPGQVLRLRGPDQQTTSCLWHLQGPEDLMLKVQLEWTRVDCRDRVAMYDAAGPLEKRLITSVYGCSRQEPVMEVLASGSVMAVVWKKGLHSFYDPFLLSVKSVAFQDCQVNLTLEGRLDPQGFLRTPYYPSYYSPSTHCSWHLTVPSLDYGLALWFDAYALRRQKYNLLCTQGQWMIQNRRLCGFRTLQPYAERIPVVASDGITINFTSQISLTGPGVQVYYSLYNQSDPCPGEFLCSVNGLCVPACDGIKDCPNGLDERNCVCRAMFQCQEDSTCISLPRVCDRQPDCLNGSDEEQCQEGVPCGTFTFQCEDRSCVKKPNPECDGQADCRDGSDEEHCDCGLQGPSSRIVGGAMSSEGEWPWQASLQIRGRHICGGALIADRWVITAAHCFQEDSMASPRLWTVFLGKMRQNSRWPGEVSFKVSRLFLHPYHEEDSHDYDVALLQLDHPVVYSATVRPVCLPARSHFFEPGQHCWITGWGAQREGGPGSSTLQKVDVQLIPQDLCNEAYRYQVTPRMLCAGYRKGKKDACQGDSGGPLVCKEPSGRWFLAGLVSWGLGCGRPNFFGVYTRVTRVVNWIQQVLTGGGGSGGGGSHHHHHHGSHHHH
Briefly: SPR, his-tagged MTP-2 ECD protein (Table W). The method, then: Off-rate screening was performed by surface plasmon resonance (SPR), using a Biacore 8K system (GE Healthcare). Anti-human Fc mix (˜1000 RU) were immobilised in both active and reference channels in HBS-P+ buffer (GE BR100671) pH 7.4. Anti-MTP-2 hulgG4PE antibodies were then captured for 60 sec at 10 μl/min at 1 μg/ml concentration (approximatively 35 and 50 RU were captured) only on the active channel. MTP-2 ECD protein analytes were then injected (at 100, 25, 6.25, 1.56 and 0 nM concentrations) for 120 sec (association time) at 30 μl/min and dissociation monitored for 600 sec. Multiple cycle kinetics mode was used with all 8 channels being used. Reference and background were subtracted from the sensorgrams for each antibody and data was fitted using a 1:1 interaction model in the Biacore evaluation software. Rmax, ka, kd globally fitted, RI=0.
NORI-011, NORI-008, NORI-003 and NORI-006 were all found to have cross-reactive binding to human, mouse, cyno and rat MTP-2 ECD proteins. […] The true KD value for NORI-008 could not be measured accurately for human or mouse MTP-2 due to a very slow off-rate.
(In general: In SPR one partner is held on a chip, and binding of the other changes the refractive index at the surface.)
B1: the Kd stood at 15.2 nM.

B5 showed a Kd of 19.2 nM.

As to B2, the Kd was 7.64 nM.

B6 returned a Kd of 3.01 nM.
